According to patent US20160368965A1 (IMMATICS BIOTECHNOLOGIES, published 2016):

Biological target: T1, HLA-A*02:01 (human)
T1 construct: the tested peptide takes its place; also called peptide-receptive MHC molecules; MHC class I
Assay: UV-ligand exchange, anti-β2m ELISA; grade of peptide exchange yield
From the text: Candidate peptides for T cell based therapies according to the present invention were further tested for their MHC binding capacity (affinity). The individual peptide-MHC complexes were produced by UV-ligand exchange, where a UV-sensitive peptide is cleaved upon UV-irradiation, and exchanged with the peptide of interest as analyzed. Only peptide candidates that can effectively bind and stabilize the peptide-receptive MHC molecules prevent dissociation of the MHC complexes. To determine the yield of the exchange reaction, an ELISA was performed based on the detection of the light chain (β2m) of stabilized MHC complexes. The assay was performed as generally described in Rodenko et al. (Rodenko et al., 2006).
96 well MAXISorp plates (NUNC) were coated over night with 2 ug/ml streptavidin in PBS at room temperature, washed 4× and blocked for 1h at 37° C. in 2% BSA containing blocking buffer. Refolded HLA-A*02:01/MLA-001 monomers served as standards, covering the range of 15-500 ng/ml. Peptide-MHC monomers of the UV-exchange reaction were diluted 100 fold in blocking buffer. Samples were incubated for 1 h at 37° C., washed four times, incubated with 2 ug/ml HRP conjugated anti-β2m for 1h at 37° C., washed again and detected with TMB solution that is stopped with […]. Absorption was measured at 450 nm. Candidate peptides that show a high exchange yield (preferably higher than 50%, most preferred higher than 75%) are generally preferred for a generation and production of antibodies or fragments thereof, and/or T cell receptors or fragments thereof, as they show sufficient avidity to the MHC molecules and prevent dissociation of the MHC complexes.

Row | Binder | peptide exchange yield [%]
1 | FVDTRTLL [FVDTRTLL (SEQ ID NO: 1)] | 20 to 50
2 | VLLDKIKNL [VLLDKIKNL (SEQ ID NO: 10)] | 20 to 50
3 | FLQPDLDSL [FLQPDLDSL (SEQ ID NO: 104)] | 50 to 75
4 | FLSEVFHQA [FLSEVFHQA (SEQ ID NO: 105)] | 50 to 75
5 | FVWSGTAEA [FVWSGTAEA (SEQ ID NO: 106)] | 50 to 75
6 | FVYGGPQVQL [FVYGGPQVQL (SEQ ID NO: 107)] | 50 to 75
7 | ILASVILNV [ILASVILNV (SEQ ID NO: 109)] | ≥ 75
8 | ILLTGTPAL [ILLTGTPAL (SEQ ID NO: 110)] | 50 to 75
9 | LLLAAARLAAA [LLLAAARLAAA (SEQ ID NO: 111)] | 50 to 75
10 | LLSDVRFVL [LLSDVRFVL (SEQ ID NO: 112)] | 50 to 75
11 | LMMSEDRISL [LMMSEDRISL (SEQ ID NO: 113)] | 50 to 75
12 | SLFPHNPQFI [SLFPHNPQFI (SEQ ID NO: 114)] | 50 to 75
13 | ALYYNPHLL [ALYYNPHLL (SEQ ID NO: 11)] | 20 to 50
14 | SLMDPNKFLLL [SLMDPNKFLLL (SEQ ID NO: 115)] | 50 to 75
15 | SMMDPNHFL [SMMDPNHFL (SEQ ID NO: 116)] | ≥ 75
16 | SVDGVIKEV [SVDGVIKEV (SEQ ID NO: 117)] | 50 to 75
17 | TLWYRPPEL [TLWYRPPEL (SEQ ID NO: 118)] | 50 to 75
18 | VLGDDPQLMKV [VLGDDPQLMKV (SEQ ID NO: 119)] | 50 to 75
19 | YLDEDTIYHL [YLDEDTIYHL (SEQ ID NO: 121)] | 20 to 50
20 | MQAPRAALVFA [MQAPRAALVFA (SEQ ID NO: 122)] | ≥ 75
21 | KISTITPQI [KISTITPQI (SEQ ID NO: 123)] | 20 to 50
22 | ALFEESGLIRI [ALFEESGLIRI (SEQ ID NO: 124)] | 50 to 75
23 | ALLGKLDAINV [ALLGKLDAINV (SEQ ID NO: 125)] | 50 to 75

Row | Binder | peptide exchange yield [%]
24 | AQYKFVYQV [AQYKFVYQV (SEQ ID NO: 12)] | 50 to 75
25 | ALLSLDPAAV [ALLSLDPAAV (SEQ ID NO: 126)] | ≥ 75
26 | ALSDLALHFL [ALSDLALHFL (SEQ ID NO: 127)] | ≥ 75
27 | ALYDVRTILL [ALYDVRTILL (SEQ ID NO: 128)] | 50 to 75
28 | ALYEKDNTYL [ALYEKDNTYL (SEQ ID NO: 129)] | 50 to 75
29 | FLFGEEPSKL [FLFGEEPSKL (SEQ ID NO: 130)] | 50 to 75
30 | FLIEEQKIVV [FLIEEQKIVV (SEQ ID NO: 131)] | 50 to 75
31 | FLWAGGRASYGV [FLWAGGRASYGV (SEQ ID NO: 132)] | 50 to 75
32 | ILDDVSLTHL [ILDDVSLTHL (SEQ ID NO: 133)] | 20 to 50
33 | ILLAEGRLVNL [ILLAEGRLVNL (SEQ ID NO: 134)] | 50 to 75
34 | KLDDTYIKA [KLDDTYIKA (SEQ ID NO: 135)] | 50 to 75
35 | FIDSSNPGL [FIDSSNPGL (SEQ ID NO: 13)] | 20 to 50
36 | KLFPGFEIETV [KLFPGFEIETV (SEQ ID NO: 136)] | ≥ 75
37 | KLGPEGELL [KLGPEGELL (SEQ ID NO: 137)] | 50 to 75
38 | NIFPNPEATFV [NIFPNPEATFV (SEQ ID NO: 138)] | 50 to 75
39 | SIDRNPPQL [SIDRNPPQL (SEQ ID NO: 139)] | 50 to 75
40 | SLLNPPETLNL [SLLNPPETLNL (SEQ ID NO: 140)] | 50 to 75
41 | SLYGYLRGA [SLYGYLRGA (SEQ ID NO: 142)] | 50 to 75
42 | TAVALLRLL [TAVALLRLL (SEQ ID NO: 144)] | 20 to 50
43 | TTFPRPVTV [TTFPRPVTV (SEQ ID NO: 145)] | 50 to 75
44 | VLISGVVHEI [VLISGVVHEI (SEQ ID NO: 146)] | 50 to 75
45 | FIIDNPQDLKV [FIIDNPQDLKV (SEQ ID NO: 14)] | 50 to 75
46 | YAFPKAVSV [YAFPKAVSV (SEQ ID NO: 147)] | 20 to 50

Row | Binder | peptide exchange yield [%]
47 | YLHNQGIGV [YLHNQGIGV (SEQ ID NO: 148)] | 20 to 50
48 | ILGTEDLIVEV [ILGTEDLIVEV (SEQ ID NO: 149)] | 50 to 75
49 | ALFQPHLINV [ALFQPHLINV (SEQ ID NO: 150)] | ≥ 75
50 | ALLDIIRSL [ALLDIIRSL (SEQ ID NO: 151)] | ≥ 75
51 | ALLEPEFILKA [ALLEPEFILKA (SEQ ID NO: 152)] | ≥ 75
52 | ALPKEDPTAV [ALPKEDPTAV (SEQ ID NO: 153)] | 50 to 75
53 | KVADLVLML [KVADLVLML (SEQ ID NO: 154)] | 50 to 75
54 | LLLDPDTAVLKL [LLLDPDTAVLKL (SEQ ID NO: 155)] | 50 to 75
55 | LLLPPPPCPA [LLLPPPPCPA (SEQ ID NO: 156)] | 50 to 75
56 | FILANEHNV [FILANEHNV (SEQ ID NO: 15)] | 50 to 75
57 | MLLEIPYMAA [MLLEIPYMAA (SEQ ID NO: 157)] | 50 to 75
58 | SLIEKYFSV [SLIEKYFSV (SEQ ID NO: 158)] | ≥ 75
59 | SLLDLHTKV [SLLDLHTKV (SEQ ID NO: 159)] | 50 to 75
60 | VLLPDERTISL [VLLPDERTISL (SEQ ID NO: 160)] | ≥ 75
61 | YLPDIIKDQKA [YLPDIIKDQKA (SEQ ID NO: 161)] | 50 to 75
62 | GLIDYDTGI [GLIDYDTGI (SEQ ID NO: 16)] | 50 to 75
63 | GLIDYDTGIRL [GLIDYDTGIRL (SEQ ID NO: 17)] | 50 to 75
64 | ALFVRLLAL [ALFVRLLAL (SEQ ID NO: 18)] | 20 to 50
65 | ALWHDAENQTVV [ALWHDAENQTVV (SEQ ID NO: 19)] | 50 to 75
66 | FGYDGDFYRA [FGYDGDFYRA (SEQ ID NO: 2)] | 50 to 75
67 | GLIDIENPNRV [GLIDIENPNRV (SEQ ID NO: 20)] | 50 to 75
